± gives the standard deviation of the averaged measurements.
B1: library; a variant is named by its letters at N, in order (parent)
chain: GCUGUCACCGGUGUAUUACCCUAGUGGUCGACCGGUCUGAUGAGUCUNNNNNNAGACGAAACAGC

Key:
[1] = variants of: B1; experiment: normalized RNA/DNA level with ligand (relative to sTRSVctl = 100) (log10 (% of sTRSVctl)); ligand: hypoxanthine (xanthine aptamer); higher = less ribozyme self-cleavage, higher mRNA level; conditions: ligand concentration (+) RNA-Seq: 5 mM, HEK293T, reporter: mCherry (pCS4076), ligand present: yes
Outline: (§1)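 RNA level was computed as RNA reads over DNA reads divided by a spiked-in non-cleaving sequence or by the top sequences, then scaled and log-transformed. Scaling was ×100 with log10, the top group was 25 sequences, and the threshold was ≥100 DNA reads. The reads came from HEK293T cells transfected at 4 µg per 6-well well with ribozyme switch library plasmids (mCherry, or eGFP in some ligand experiments). Total RNA was extracted with EDTA 72 h after transfection, with any ligand added 1 h before it.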

[2] = variants of: B1; experiment: normalized RNA/DNA level without ligand (relative to sTRSVctl = 100) (log10 (% of sTRSVctl)); ligand: hypoxanthine (xanthine aptamer); higher = less ribozyme self-cleavage, higher mRNA level; conditions: HEK293T, reporter: mCherry (pCS4076), ligand present: no
Outline: as §1

Variant	normalized RNA/DNA level with ligand (log10) [1]	normalized RNA/DNA level without ligand (log10) [2]
CCGUCG	1.89 ± 0.061	1.689 ± 0.011
CCGUCA	1.909 ± 0.008	1.855 ± 0.0032
CCGUCU	1.97 ± 0.036	1.83 ± 0.063
CCGGAU	1.9742 ± 0.0018	1.777 ± 0.012
UCGACA	1.93 ± 0.023	1.72 ± 0.063
UCGACU	1.93 ± 0.056	1.72 ± 0.035
UCGACC	1.976 ± 0.015	1.955 ± 0.011
UCGACG	1.94 ± 0.021	1.704 ± 0.007
UCUACA	1.94 ± 0.057	1.846 ± 0.017
UCUACC	1.96 ± 0.029	1.913 ± 0.0037
UCUACU	1.97 ± 0.067	1.917 ± 0.014
UCUACG	1.9 ± 0.07	1.733 ± 0.011
UCCUAU	1.957 ± 0.0089	1.851 ± 0.0031
UCUAAC	1.9378 ± 0.00086	1.85 ± 0.013
GCUAAA	1.95 ± 0.043	1.77 ± 0.023
CCUAUG	1.92 ± 0.13	1.86 ± 0.083
CCUAUC	2.03 ± 0.028	2.04 ± 0.03
CCUAUU	1.95 ± 0.063	1.9 ± 0.039
CCGGUC	1.96 ± 0.039	1.95 ± 0.029
CCGGUA	1.93 ± 0.034	1.863 ± 0.0044

Variant	normalized RNA/DNA level with ligand (log10) [1]	normalized RNA/DNA level without ligand (log10) [2]
UCGGCU	1.913 ± 0.014	1.8 ± 0.063
UCGGCC	2.04 ± 0.081	1.951 ± 0.006
UCGGCA	1.99 ± 0.056	1.7 ± 0.098
ACGUAC	1.9 ± 0.041	1.55 ± 0.036
ACGUAU	1.86 ± 0.057	1.39 ± 0.053
UCGUUG	1.98 ± 0.095	1.785 ± 0.01
UCGUUA	1.961 ± 0.0027	1.736 ± 0.0095
UCGUUU	1.96 ± 0.042	1.8 ± 0.01
UCGUUC	2 ± 0.031	1.95 ± 0.086
GCUCAG	1.86 ± 0.019	1.31 ± 0.057
GCUCAC	1.94 ± 0.08	1.84 ± 0.053
CCGCUC	2.005 ± 0.0034	1.963 ± 0.019
CCGCUU	1.96 ± 0.051	1.887 ± 0.0021
ACCUCA	1.904 ± 0.0082	1.89 ± 0.027
ACCUCG	1.928 ± 0.017	1.62 ± 0.062
ACCUCC	1.99 ± 0.03	1.919 ± 0.018
ACCUCU	1.99 ± 0.054	1.926 ± 0.01
UCUAGG	1.96 ± 0.072	1.92 ± 0.089
UCUAGU	1.99 ± 0.051	1.68 ± 0.019
UCGGGG	1.98 ± 0.05	1.69 ± 0.035

Variant	normalized RNA/DNA level with ligand (log10) [1]	normalized RNA/DNA level without ligand (log10) [2]
UCGGGC	2.021 ± 0.017	1.99 ± 0.0053
UCGGGU	1.81 ± 0.075	1.55 ± 0.13
CCGUUU	1.95 ± 0.028	1.86 ± 0.069
CCGUUA	1.94 ± 0.021	1.75 ± 0.094
CCGUUG	1.88 ± 0.045	1.589 ± 0.0096
CCGUUC	1.96 ± 0.079	1.82 ± 0.099
ACUAGU	1.88 ± 0.052	1.71 ± 0.07
ACUAGC	1.881 ± 0.0075	1.79 ± 0.075
GCGUCU	1.98 ± 0.085	1.772 ± 0.0055
GCGUCC	1.93 ± 0.029	1.59 ± 0.039
GCGUCG	1.89 ± 0.037	1.53 ± 0.041
GCGUCA	1.96 ± 0.023	1.68 ± 0.069
GCCUGC	1.977 ± 0.012	1.86 ± 0.045
GCCUGU	1.93 ± 0.024	1.83 ± 0.015
GCCUGG	1.94 ± 0.062	1.5 ± 0.017
CCGCAU	1.96 ± 0.048	1.786 ± 0.0041
CCGCAC	1.964 ± 0.013	1.754 ± 0.0073
CCGCAA	1.95 ± 0.04	1.78 ± 0.046
